Results: the supplement of paper PMC5998384

Key:
HeLa Kyoto [1] = assay: solubility change mitosis vs G1/S (difference of NP-40 vs SDS log2 ratios) (log2 ratio difference); higher = more soluble in mitosis
HeLa Kyoto [2] = assay: solubility in G1/S (NP-40 vs SDS abundance) (log2 ratio); higher = more soluble; conditions: cell cycle stage: G1/S
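Wherever solubility change mitosis vs G1/S (difference of NP-40 vs SDS log2 ratios) is given: synchronized HeLa Kyoto cells (double thymidine block for G1/S, nocodazole release for mitosis), protein amounts in NP-40 versus SDS lysates quantified by mass spectrometry, three biological replicates.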
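Wherever solubility in G1/S (NP-40 vs SDS abundance) is given: HeLa Kyoto cells arrested at G1/S by double thymidine block, proteins quantified by TMT10plex mass spectrometry in mild NP-40 versus SDS extracts, three biological replicates.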

Chain of POLR3K (chain, as listed by the source): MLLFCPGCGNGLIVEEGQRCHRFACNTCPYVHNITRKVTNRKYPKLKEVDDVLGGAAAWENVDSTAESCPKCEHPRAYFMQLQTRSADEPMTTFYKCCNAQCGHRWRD

| Substance | solubility change mitosis (log2) (HeLa Kyoto [1]) | solubility in G1/S (log2) (HeLa Kyoto [2]) |
| --- | --- | --- |
| MATVQEKAAALNLSALHSPAHRPPGFSVAQKPFGATYVWSSIINTLQTQVEVKKRRHRLKRHNDCFVGSEAVDVIFSHLIQNKYFGDVDIPRAKVVRVCQALMDYKVFEAVPTKVFGKDKKPTFEDSSCSLYRFTTIPNQDSQLGKENKLYSPARYADALFKSSDIRSASLEDLWENLSLKPANSPHVNISATLSPQVINEVWQEETIGRLLQLVDLPLLDSLLKQQEAVPKIPQPKRQSTMVNSSNYLDRGILKAYSDSQEDEWLSAAIDCLEYLPDQMVVEISRSFPEQPDRTDLVKELLFDAIGRYYSSREPLLNHLSDVHNGIAELLVNGKTEIALEATQLLLKLLDFQNREEFRRLLYFMAVAANPSEFKLQKESDNRMVVKRIFSKAIVDNKNLSKGKTDLLVLFLMDHQKDVFKIPGTLHKIVSVKLMAIQNGRDPNRDAGYIYCQRIDQRDYSNNTEKTTKDELLNLLKTLDEDSKLSAKEKKKLLGQFYKCHPDIFIEHFGD [DEPDC7] | -0.0977 | 0.222 |
| MQREEKQLEASLDALLSQVADLKNSLGSFICKLENEYGRLTWPSVLDSFALLSGQLNTLNKVLKHEKTPLFRNQVIIPLVLSPDRDEDLMRQTEGRVPVFSHEVVPDHLRTKPDPEVEEQEKQLTTDAARIGADAAQKQIQSLNKMCSNLLEKISKEERESESGGLRPNKQTFNPTDTNALVAAVAFGKGLSNWRPSGSSGPGQAGQPGAGTILAGTSGLQQVQMAGAPSQQQPMLSGVQMAQAGQPGKMPSGIKTNIKSASMHPYQR [MED8] | 0.105 | 0.142 |
| MLTEASLSIWGWGSLGIVLFLITFGPFVIFYLTFYILCFVGGGLVVTLLFGKTNSEKYLEQCEHSFLPPTSPGVPKCLEEMKREARTIKIDRRLTGANIIDEPLQQVIQFSLRDYVQYWYYTLSDDESFLLEIRQTLQNALIQFATRSKEIDWQPYFTTRIVDDFGTHLRVFRKAQQKITEKDDQVKGTAEDLVDTFFEVEVEMEKEVCRDLVCTSPKDEEGFLRDLCEVLLYLLLPPGDFQNKIMRYFVREILARGILLPLINQLSDPDYINQYVIWMIRDSNCNYEAFMNIIKLSDNIGELEAVRDKAAEELQYLRSLDTAGDDINTIKNQINSLLFVKKVCDSRIQRLQSGKEINTVKLAANFGKLCTVPLDSILVDNVALQFFMDYMQQTGGQAHLFFWMTVEGYRVTAQQQLEVLLSRQRDGKHQTNQTKGLLRAAAVGIYEQYLSEKASPRVTVDDYLVAKLADTLNHEDPTPEIFDDIQRKVYELMLRDERFYPSFRQNALYVRMLAELDMLKDPSFRGSDDGDGESFNGSPTGSINLSLDDLSNVSSDDSVQLHAYISDTVYADYDPYAVAGVCNDHGKTYALYAITVHRRNLNSEEMWKTYRRYSDFHDFHMRITEQFESLSSILKLPGKKTFNNMDRDFLEKRKKDLNAYLQLLLAPEMMKASPALAHYVYDFLENKAYSKGKGDFARKMDTFVNPLRNSMRNVSNAVKSLPDSLAEGMTKMSDNMGKMSERLGQDIKQSFFKVPPLIPKTDSDPEHRRVSAQLDDNVDDNIPLRVMLLLMDEVFDLKERNQWLRRNIKNLLQQLIRATYGDTINRKIVDHVDWMTSPEQVADSVKRFRDAFWPNGILAEAVPCRDKSIRMRTRVAGKTKLLAIMPDELKHIIGAETTRKGILRVFEMFQHNQLNRRMVYVFLEGFLETLFPQYKFRELFNKLHSRSKQMQKYKQKLQTTQAPSLQKR [SNX13] | -0.0268 | -0.221 |
| MSGSHTPACGPFSALTPSIWPQEILAKYTQKEESAEQPEFYYDEFGFRVYKEEGDEPGSSLLANSPLMEDAPQRLRWQAHLEFTHNHDVGDLTWDKIAVSLPRSEKLRSLVLAGIPHGMRPQLWMRLSGALQKKRNSELSYREIVKNSSNDETIAAKQIEKDLLRTMPSNACFASMGSIGVPRLRRVLRALAWLYPEIGYCQGTGMVAACLLLFLEEEDAFWMMSAIIEDLLPASYFSTTLLGVQTDQRVLRHLIVQYLPRLDKLLQEHDIELSLITLHWFLTAFASVVDIKLLLRIWDLFFYEGSRVLFQLTLGMLHLKEEELIQSENSASIFNTLSDIPSQMEDAELLLGVAMRLAGSLTDVAVETQRRKHLAYLIADQGQLLGAGTLTNLSQVVRRRTQRRKSTITALLFGEDDLEALKAKNIKQTELVADLREAILRVARHFQCTDPKNCSVELTPDYSMESHQRDHENYVACSRSHRRRAKALLDFERHDDDELGFRKNDIITIVSQKDEHCWVGELNGLRGWFPAKFVEVLDERSKEYSIAGDDSVTEGVTDLVRGTLCPALKALFEHGLKKPSLLGGACHPWLFIEEAAGREVERDFASVYSRLVLCKTFRLDEDGKVLTPEELLYRAVQSVNVTHDAVHAQMDVKLRSLICVGLNEQVLHLWLEVLCSSLPTVEKWYQPWSFLRSPGWVQIKCELRVLCCFAFSLSQDWELPAKREAQQPLKEGVRDMLVKHHLFSWDVDG [SGSM3] | 0.011 | -0.177 |
| POLR3K | 0.031 | 0.354 |
| DDX60 | -0.0365 | -0.517 |
| MGTIHLFRKPQRSFFGKLLREFRLVAADRRSWKILLFGVINLICTGFLLMWCSSTNSIALTAYTYLTIFDLFSLMTCLISYWVTLRKPSPVYSFGFERLEVLAVFASTVLAQLGALFILKESAERFLEQPEIHTGRLLVGTFVALCFNLFTMLSIRNKPFAYVSEAASTSWLQEHVADLSRSLCGIIPGLSSIFLPRMNPFVLIDLAGAFALCITYMLIEINNYFAVDTASAIAIALMTFGTMYPMSVYSGKVLLQTTPPHVIGQLDKLIREVSTLDGVLEVRNEHFWTLGFGSLAGSVHVRIRRDANEQMVLAHVTNRLYTLVSTLTVQIFKDDWIRPALLSGPVAANVLNFSDHHVIPMPLLKGTDDLNPVTSTPAKPSSPPPEFSFNTPGKNVNPVILLNTQTRPYGFGLNHGHTPYSSMLNQGLGVPGIGATQGLRTGFTNIPSRYGTNNRIGQPRP [SLC30A6] | -0.0121 | -0.097 |
| MSVSARSAAAEERSVNSSTMVAQQKNLEGYVGFANLPNQVYRKSVKRGFEFTLMVVGESGLGKSTLINSLFLTDLYSPEYPGPSHRIKKTVQVEQSKVLIKEGGVQLLLTIVDTPGFGDAVDNSNCWQPVIDYIDSKFEDYLNAESRVNRRQMPDNRVQCCLYFIAPSGHGLKPLDIEFMKRLHEKVNIIPLIAKADTLTPEECQQFKKQIMKEIQEHKIKIYEFPETDDEEENKLVKKIKDRLPLAVVGSNTIIEVNGKRVRGRQYPWGVAEVENGEHCDFTILRNMLIRTHMQDLKDVTNNVHYENYRSRKLAAVTYNGVDNNKNKGQLTKSPLAQMEEERREHVAKMKKMEMEMEQVFEMKVKEKVQKLKDSEAELQRRHEQMKKNLEAQHKELEEKRRQFEDEKANWEAQQRILEQQNSSRTLEKNKKKGKIF [SEPT7] | 0.00373 | 0.245 |
| MGALARALLLPLLAQWLLRAAPELAPAPFTLPLRVAAATNRVVAPTPGPGTPAERHADGLALALEPALASPAGAANFLAMVDNLQGDSGRGYYLEMLIGTPPQKLQILVDTGSSNFAVAGTPHSYIDTYFDTERSSTYRSKGFDVTVKYTQGSWTGFVGEDLVTIPKGFNTSFLVNIATIFESENFFLPGIKWNGILGLAYATLAKPSSSLETFFDSLVTQANIPNVFSMQMCGAGLPVAGSGTNGGSLVLGGIEPSLYKGDIWYTPIKEEWYYQIEILKLEIGGQSLNLDCREYNADKAIVDSGTTLLRLPQKVFDAVVEAVARASLIPEFSDGFWTGSQLACWTNSETPWSYFPKISIYLRDENSSRSFRITILPQLYIQPMMGAGLNYECYRFGISPSTNALVIGATVMEGFYVIFDRAQKRVGFAASPCAEIAGAAVSEISGPFSTEDVASNCVPAQSLSEPILWIVSYALMSVCGAILLVLIVLLLLPFRCQRRPRDPEVVNDESSLVRHRWK [BACE2] | 0.0177 | 0.0932 |
| MGELCRRDSALTALDEETLWEMMESHRHRIVRCICPSRLTPYLRQAKVLCQLDEEEVLHSPRLTNSAMRAGHLLDLLKTRGKNGAIAFLESLKFHNPDVYTLVTGLQPDVDFSNFSGLMETSKLTECLAGAIGSLQEELNQEKGQKEVLLRRCQQLQEHLGLAETRAEGLHQLEADHSRMKREVSAHFHEVLRLKDEMLSLSLHYSNALQEKELAASRCRSLQEELYLLKQELQRANMVSSCELELQEQSLRTASDQESGDEELNRLKEENEKLRSLTFSLAEKDILEQSLDEARGSRQELVERIHSLRERAVAAERQREQYWEEKEQTLLQFQKSKMACQLYREKVNALQAQVCELQKERDQAYSARDSAQREISQSLVEKDSLRRQVFELTDQVCELRTQLRQLQAEPPGVLKQEARTREPCPREKQRLVRMHAICPRDDSDCSLVSSTESQLLSDLSATSSRELVDSFRSSSPAPPSQQSLYKRVAEDFGEEPWSFSSCLEIPEGDPGALPGAKAGDPHLDYELLDTADLPQLESSLQPVSPGRLDVSESGVLMRRRPARRILSQVTMLAFQGDALLEQISVIGGNLTGIFIHRVTPGSAADQMALRPGTQIVMVDYEASEPLFKAVLEDTTLEEAVGLLRRVDGFCCLSVKVNTDGYKRLLQDLEAKVATSGDSFYIRVNLAMEGRAKGELQVHCNEVLHVTDTMFQGCGCWHAHRVNSYTMKDTAAHGTIPNYSRAQQQLIALIQDMTQQCTVTRKPSSGGPQKLVRIVSMDKAKASPLRLSFDRGQLDPSRMEGSSTCFWAESCLTLVPYTLVRPHRPARPRPVLLVPRAVGKILSEKLCLLQGFKKCLAEYLSQEEYEAWSQRGDIIQEGEVSGGRCWVTRHAVESLMEKNTHALLDVQLDSVCTLHRMDIFPIVIHVSVNEKMAKKLKKGLQRLGTSEEQLLEAARQEEGDLDRAPCLYSSLAPDGWSDLDGLLSCVRQAIADEQKKVVWTEQSPR [CARD14] | 0.0129 | -0.00296 |
| MELGKGKLLRTGLNALHQAVHPIHGLAWTDGNQVVLTDLRLHSGEVKFGDSKVIGQFECVCGLSWAPPVADDTPVLLAVQHEKHVTVWQLCPSPMESSKWLTSQTCEIRGSLPILPQGCVWHPKCAILTVLTAQDVSIFPNVHSDDSQVKADINTQGRIHCACWTQDGLRLVVAVGSSLHSYIWDSAQKTLHRCSSCLVFDVDSHVCSITATVDSQVAIATELPLDKICGLNASETFNIPPNSKDMTPYALPVIGEVRSMDKEATDSETNSEVSVSSSYLEPLDLTHIHFNQHKSEGNSLICLRKKDYLTGTGQDSSHLVLVTFKKAVTMTRKVTIPGILVPDLIAFNLKAHVVAVASNTCNIILIYSVIPSSVPNIQQIRLENTERPKGICFLTDQLLLILVGKQKLTDTTFLPSSKSDQYAISLIVREIMLEEEPSITSGESQTTYSTFSAPLNKANRKKLIESLSPDFCHQNKGLLLTVNTSSQNGRPGRTLIKEIQSPLSSICDGSIALDAEPVTQPASLPRHSSTPDHTSTLEPPRLPQRKNLQSEKETYQLSKEVEILSRNLVEMQRCLSELTNRLHNGKKSSSVYPLSQDLPYVHIIYQKPYYLGPVVEKRAVLLCDGKLRLSTVQQTFGLSLIEMLHDSHWILLSADSEGFIPLTFTATQEIIIRDGSLSRSDVFRDSFSHSPGAVSSLKVFTGLAAPSLDTTGCCNHVDGMA [C2ORF44] | -0.0919 | -0.00732 |
| MALLRKINQVLLFLLIVTLCVILYKKVHKGTVPKNDADDESETPEELEEEIPVVICAAAGRMGATMAAINSIYSNTDANILFYVVGLRNTLTRIRKWIEHSKLREINFKIVEFNPMVLKGKIRPDSSRPELLQPLNFVRFYLPLLIHQHEKVIYLDDDVIVQGDIQELYDTTLALGHAAAFSDDCDLPSAQDINRLVGLQNTYMGYLDYRKKAIKDLGISPSTCSFNPGVIVANMTEWKHQRITKQLEKWMQKNVEENLYSSSLGGGVATSPMLIVFHGKYSTINPLWHIRHLGWNPDARYSEHFLQEAKLLHWNGRHKPWDFPSVHNDLWESWFVPDPAGIFKLNHHS [GLT8D2] | -0.357 | 0.233 |
